Patent publication US20230192896A1 (published 2023)

Biological target: T1, FX zymogen (UniProt P00742 41-179; P00742 183-488)
T1 chain 1: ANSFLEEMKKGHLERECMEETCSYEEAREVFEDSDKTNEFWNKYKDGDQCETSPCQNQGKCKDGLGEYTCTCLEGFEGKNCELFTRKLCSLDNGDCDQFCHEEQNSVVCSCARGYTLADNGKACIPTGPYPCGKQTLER
T1 chain 2: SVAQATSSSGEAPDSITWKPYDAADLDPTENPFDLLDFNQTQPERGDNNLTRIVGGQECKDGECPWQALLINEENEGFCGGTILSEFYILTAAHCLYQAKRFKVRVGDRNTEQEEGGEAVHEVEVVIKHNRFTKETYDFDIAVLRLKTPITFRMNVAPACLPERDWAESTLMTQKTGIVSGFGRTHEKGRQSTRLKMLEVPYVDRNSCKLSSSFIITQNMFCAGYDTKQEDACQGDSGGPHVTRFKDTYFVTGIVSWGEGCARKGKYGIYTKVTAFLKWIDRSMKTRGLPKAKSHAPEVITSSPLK
Assay: BLI

B1: BIIB-12-1306 (antibody, V domains shown)
VH: QVQLQESGPGLVKPSQTLSLTCTVSGGSISSGGYYWSWIRQHPGKGLEWIGSIYYSGSTYYNPSLKSRVTISVDTSKNQFSLKLSSVTAADTAVYYCARGAGGSAPWGQGTLVTVSS
VL: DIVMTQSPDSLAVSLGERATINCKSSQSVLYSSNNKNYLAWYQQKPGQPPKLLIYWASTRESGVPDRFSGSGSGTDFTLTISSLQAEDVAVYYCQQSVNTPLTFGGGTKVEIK
- Kd: 47 nM

B2: BIIB-12-1293 (antibody, V domains shown)
VH: QVQLVQSGAEVKKPGASVKVSCKASGYTFTSYYMHWVRQAPGQGLEWMGIINPSGGSTSYAQKFQGRVTMTRDTSTSTVYMELSSLRSEDTAVYYCARGSGGKHRGLDVWGQGTMVTVSS
VL: DIQMTQSPSSVSASVGDRVTITCRASQGISSWLAWYQQKPGKAPKLLIYAASSLQSGVPSRFSGSGSGTDFTLTISSLQPEDFATYYCQQANIFPFTFGGGTKVEIK
- Kd: 26 nM

B3: BIIB-12-936 (antibody, V domains shown)
VH: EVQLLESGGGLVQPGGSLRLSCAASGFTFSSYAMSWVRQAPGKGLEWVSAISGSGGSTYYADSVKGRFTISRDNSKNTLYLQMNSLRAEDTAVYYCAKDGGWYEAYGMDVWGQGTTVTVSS
VL: EIVMTQSPATLSVSPGERATLSCRASQSVSSNLAWYQQKPGQAPRLLIYGASTRATGIPARFSGSGSGTEFTLTISSLQSEDFAVYYCQQSHNLPPTFGGGTKVEIK
- Kd: 66 nM

B4: BIIB-12-1292 (antibody, V domains shown)
VH: QVQLVQSGAEVKKPGASVKVSCKASGYTFTSYYIHWVRQAPGQGLEWMGIINPSGGSTSYAQKFQGRVTMTRDTSTSTVYMELSSLRSEDTAVYYCARDPGRRQSSGFDYWGQGTLVTVSS
VL: EIVMTQSPATLSLSPGERATLSCRASQSVSSYLAWYQQKPGQAPRLLIYDSSNRATGIPARFSGSGSGTDFTLTISSLEPEDFAVYYCQQRLNFPFTFGGGTKVEIK
- Kd: 65.5 nM

B5: BIIB-12-892 (antibody, V domains shown)
VH: QVQLVQSGAEVKKPGASVKVSCKASGYTFTSYYMHWVRQAPGQGLEWMGIINPSGGSTSYAQKFQGRVTMTRDTSTSTVYMELSSLRSEDTAVYYCARGLGRRTPTAFDIWGQGTMVTVSS
VL: EIVLTQSPATLSLSPGERATLSCRASQSVSSYLAWYQQKPGQAPRLLIYDASNRATGIPARFSGSGSGTDFTLTISSLEPEDFAVYYCQQRLNLPLTFGGGTKVEIK
- Kd: 33.2 nM

B6: BIIB-12-891 (antibody, V domains shown)
VH: QVQLVQSGAEVKKPGASVKVSCKASGYTFTSYYIHWVRQAPGQGLEWMGIINPSGGSTSYAQKFQGRVTMTRDTSTSTVYMELSSLRSEDTAVYYCARASIYRGLGAFDIWGQGTMVTVSS
VL: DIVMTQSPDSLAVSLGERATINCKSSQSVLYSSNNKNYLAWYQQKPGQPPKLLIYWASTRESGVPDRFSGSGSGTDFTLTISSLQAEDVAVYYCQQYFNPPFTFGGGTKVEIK
- Kd: 65.2 nM

B7: BIIB-12-921 (antibody, V domains shown)
VH: QVQLVESGGGVVQPGRSLRLSCAASGFTFSSYGMHWVRQAPGKGLEWVAVISYDGSNKYYADSVKGRFTISRDNSKNTLYLQMNSLRAEDTAVYYCAKVGDRGTRAFDPWGQGTLVTVSS
VL: DIQMTQSPSSVSASVGDRVTITCRASQGISRWLAWYQQKPGKAPKLLIYAASSLQSGVPSRFSGSGSGTDFTLTISSLQPEDFATYYCQQGNVFPLTFGGGTKVEIK
- Kd: 23.1 nM

B8: BIIB-12-917 (antibody, V domains shown)
VH: EVQLVQSGAEVKKPGESLKISCKGSGYSFTTYWIGWVRQMPGKGLEWMGIIYPGDSDTRYSPSFQGQVTISADKSISTAYLQWSSLKASDTAMYYCARGRFRPRGRFDYWGQGTLVTVSS
VL: EIVMTQSPATLSVSPGERATLSCRASQSVSSNLAWYQQKPGQAPRLLIYGASTRATGIPARFSGSGSGTEFTLTISSLQSEDFAVYYCQQLFNHPPTFGGGTKVEIK
- Kd: 31.5 nM

B9: BIIB-12-1319 (antibody, V domains shown)
VH: QVQLVESGGGVVQPGRSLRLSCAASGFTFSSYGMHWVRQAPGKGLEWVAVISYDGSNKYYADSVKGRFTISRDNSKNTLYLQMNSLRAEDTAVYYCARTGYHRSVYYWGQGTLVTVSS
VL: EIVMTQSPATLSVSPGERATLSCRASQSVSSNLAWYQQKPGQAPRLLIYGASTRATGIPARFSGSGSGTEFTLTISSLQSEDFAVYYCQQASNFPPTFGGGTKVEI
- Kd: 31 nM

B10: BIIB-12-1324 (antibody, V domains shown)
VH: QVQLVQSGAEVKKPGASVKVSCKASGYTFTSYYMVWVRQAPGQGLEWMGIINPSGGSTSYAQKFQGRVTMTRDTSTSTVYMELSSLRSEDTAVYYCARLPRYSKRGLDVWGQGTMVTVSS
VL: EIVMTQSPATLSLSPGERATLSCRASQSVSSYLAWYQQKPGQAPRLLIYDSSNRATGIPARFSGSGSGTDFTLTISSLEPEDFAVYYCQQLVSWPTFGGGTKVEIK
- Kd: 67.7 nM

B11: BIIB-12-1318 (antibody, V domains shown)
VH: QVQLVESGGGVVQPGRSLRLSCAASGFTFSSYGMHWVRQAPGKGLEWVAVISYDGSNKYYADSVKGRFTISRDNSKNTLYLQMNSLRAEDTAVYYCARKGDYRSGSYSGRAFGIWGQGTMVTVSS
VL: EIVLTQSPATLSLSPGERATLSCRASQSVSSYLAWYQQKPGQAPRLLIYDASNRATGIPARFSGSGSGTDFTLTISSLEPEDFAVYYCQQLNNWPPTFGGGTKVEIK
- Kd: 56.1 nM

B12: BIIB-12-1317 (antibody, V domains shown)
VH: QVQLVESGGGVVQPGRSLRLSCAASGFTFSSYGMHWVRQAPGKGLEWVAVISYDGSNKYYADSVKGRFTISRDNSKNTLYLQMNSLRAEDTAVYYCARGVGGHDTRWGQGTLVTVSS
VL: DIQMTQSPSSVSASVGDRVTITCRASQGISSWLAWYQQKPGKAPKLLIYAASSLQSGVPSRFSGSGSGTDFTLTISSLQPEDFATYYCQQRHSLPPTFGGGTKVEIK
- Kd: 27.1 nM

B13: BIIB-12-1297 (antibody, V domains shown)
VH: QVQLVESGGGVVQPGRSLRLSCAASGFTFSSYGMHWVRQAPGKGLEWVAVISYDGSNKYYADSVKGRFTISRDNSKNTLYLQMNSLRAEDTAVYYCARSGGQTHRRSMDVWGQGTTVTVSS
VL: EIVLTQSPATLSLSPGERATLSCRASQSVSRYLAWYQQKPGQAPRLLIYDASNRATGIPARFSGSGSGTDFTLTISSLEPEDFAVYYCQQGNNWPPTFGGGTKVEIK
- Kd: 26.8 nM

B14: BIIB-12-1315 (antibody, V domains shown)
VH: QVQLVQSGAEVKKPGASVKVSCKASGYTFTSYYMVWVRQAPGQGLEWMGIINPSGGSTSYAQKFQGRVTMTRDTSTSTVYMELSSLRSEDTAVYYCARGRPSSKRVTYFDYWGQGTLVTVSS
VL: EIVMTQSPATLSVSPGERATLSCRASQSVSSNLAWYQQKPGQAPRLLIYGASTRATGIPARFSGSGSGTEFTLTISSLQSEDFAVYYCQQVFNWPPWTFGGGTKVEIK
- Kd: 53.2 nM

B15: BIIB-12-1325 (antibody, V domains shown)
VH: QVQLVQSGAEVKKPGASVKVSCKASGYTFTSYYMVWVRQAPGQGLEWMGIINPSGGSTSYAQKFQGRVTMTRDTSTSTVYMELSSLRSEDTAVYYCARGGRYMLDPWGQGTLVTVSS
VL: DIQMTQSPSTLSASVGDRVTITCRASQSISSWLAWYQQKPGKAPKLLIYKASSLESGVPSRFSGSGSGTEFTLTISSLQPDDFATYYCQQSNRYPRTFGGGTKVEIK
- Kd: 17.8 nM

B16: BIIB-12-899 (antibody, V domains shown)
VH: QVQLVQSGAEVKKPGASVKVSCKASGYTFTSYYMHWVRQAPGQGLEWMGIINPSGGSTSYAQKFQGRVTMTRDTSTSTVYMELSSLRSEDTAVYYCARGPRTSSPLYFDLWGRGTLVTVSS
VL: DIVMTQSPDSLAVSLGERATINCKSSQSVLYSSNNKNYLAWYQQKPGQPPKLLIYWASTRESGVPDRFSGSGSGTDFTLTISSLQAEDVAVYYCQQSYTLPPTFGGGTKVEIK
- Kd: 34.2 nM

B17: BIIB-12-909 (antibody, V domains shown)
VH: QVQLVESGGGVVQPGRSLRLSCAASGFTFSSYGMHWVRQAPGKGLEWVAVISYDGSNKYYADSVKGRFTISRDNSKNTLYLQMNSLRAEDTAVYYCAKGKHRRRSFDIWGQGTMVTVSS
VL: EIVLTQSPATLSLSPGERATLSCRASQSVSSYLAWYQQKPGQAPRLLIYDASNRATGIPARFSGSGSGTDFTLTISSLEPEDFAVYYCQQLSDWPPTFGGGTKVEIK
- Kd: 69.7 nM

B18: BIIB-12-914 (antibody, V domains shown)
VH: QVQLVQSGAEVKKPGASVKVSCKASGYTFTSYYMHWVRQAPGQGLEWMGIINPSGGSTSYAQKFQGRVTMTRDTSTSTVYMELSSLRSEDTAVYYCARAPRYRGTMDVWGQGTTVTVSS
VL: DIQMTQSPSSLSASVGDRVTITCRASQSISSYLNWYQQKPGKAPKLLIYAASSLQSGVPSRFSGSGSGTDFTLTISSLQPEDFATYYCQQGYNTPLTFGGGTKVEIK
- Kd: 48.1 nM

B19: BIIB-12-1310 (antibody, V domains shown)
VH: EVQLVESGGGLVKPGGSLRLSCAASGFTFSSYSMNWVRQAPGKGLEWVSSISSSSSYIYYADSVKGRFTISRDNAKNSLYLQMNSLRAEDTAVYYCARLGGYGSSQRYFDLWGRGTLVTVSS
VL: EIVLTQSPATLSLSPGERATLSCRASQSVSRYLAWYQQKPGQAPRLLIYDASNRATGIPARFSGSGSGTDFTLTISSLEPEDFAVYYCEQASNWPPTFGGGTKVEIK
- Kd: 46.1 nM

B20: BIIB-12-913 (antibody, V domains shown)
VH: QVQLVQSGAEVKKPGASVKVSCKASGYTFTSYGISWVRQAPGQGLEWMGWISAYNGNTNYAQKLQGRVTMTTDTSTSTAYMELRSLRSDDTAVYYCARGGVSRFWGQGTLVTVSS
VL: EIVMTQSPATLSVSPGERATLSCRASQSVSSNLAWYQQKPGQAPRLLIYGASTRATGIPARFSGSGSGTEFTLTISSLQSEDFAVYYCQQYAPYPPLTFGGGTKVEIK
- Kd: 78.5 nM

B21: BIIB-12-935 (antibody, V domains shown)
VH: QVQLVESGGGVVQPGRSLRLSCAASGFTFSSYGMHWVRQAPGKGLEWVAVISYDGSNKYYADSVKGRFTISRDNSKNTLYLQMNSLRAEDTAVYYCARELEYGHYGMDVWGQGTTVTVSS
VL: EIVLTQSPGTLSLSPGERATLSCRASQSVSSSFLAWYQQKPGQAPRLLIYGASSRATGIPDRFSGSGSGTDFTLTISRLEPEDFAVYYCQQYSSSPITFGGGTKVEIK
- Kd: 38.8 nM
